{"source": "patent US20060281125", "about": "“ICBP90 polypeptide and its fragments and polynucleotides coding for said polypeptides and applications for diagnosing and treating cancer” (Institut National de la Sante et de la Recherche Medicale, published 2006)", "binders": {"B1": {"name": "ICB2X3 (dsDNA)", "DNA 1": "AATTCGATTGGTTCTGATTGGTTCTGATTGGTTCTT", "DNA 2": "CTAGAAGAACCAATCAGAACCAATCAGAACCAATCG"}}, "biological_target": "T1, ICBP-59 (Homo sapiens, UniProt Q96T88 SEQ:263-793)", "T1 chain": "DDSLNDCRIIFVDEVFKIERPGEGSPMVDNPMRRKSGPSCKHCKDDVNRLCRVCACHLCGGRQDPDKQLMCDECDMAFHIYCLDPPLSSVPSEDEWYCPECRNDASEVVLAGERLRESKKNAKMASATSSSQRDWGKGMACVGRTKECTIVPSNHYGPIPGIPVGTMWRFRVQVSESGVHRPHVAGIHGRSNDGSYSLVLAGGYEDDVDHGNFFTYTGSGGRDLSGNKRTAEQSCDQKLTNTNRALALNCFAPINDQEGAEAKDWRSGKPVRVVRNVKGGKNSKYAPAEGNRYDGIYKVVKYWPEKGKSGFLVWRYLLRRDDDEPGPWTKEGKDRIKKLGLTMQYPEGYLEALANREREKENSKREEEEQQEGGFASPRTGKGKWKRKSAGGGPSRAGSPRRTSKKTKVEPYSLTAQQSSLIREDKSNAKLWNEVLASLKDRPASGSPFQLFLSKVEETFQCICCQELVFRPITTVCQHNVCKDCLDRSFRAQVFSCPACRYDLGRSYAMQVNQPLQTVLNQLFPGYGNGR", "assay": "EMSA; 12 mM HEPES-NaOH pH 7.9, 60 mM KCl, 4 mM Tris-HCl, 12% glycerol, poly(dI/dC), room temperature", "conditions": "tags: GST fusion (pGEX-4T-1), GST cleaved with thrombin; label: 32P; cohesive EcoRI/XbaI ends", "protocol": "The ICBP-59 protein (1 μg) was incubated with 1 ng of oligonucleotide and labelled at its terminal end by phosphorous ³²P in 12% glycerol, 12 mM HEPES-NaOH (pH 7.9), 60 mM KCl, 4 mM Tris-HCl (pH 7.9), 100 ng BSA, 0.6 mM DTT, and 100 ng poly(dI/dC) in 20 μl (Inouye et al., 1994). After a 30-minutes incubation at room temperature, the reaction mix was loaded in 6% polyacrylamide gels. In competition experiments, the quantity indicated of non-labelled oligonucleotides were added to the reaction mix 10 minutes before the addition of proteins. To examine the binding properties of ICBP90 with regard to the ICB2 box, we used the same protocol except that labelled oligonucleotide contained only one copy of the CCAAT sequence as described below: […]"}
{"binder": "B1", "values": [{"measurement": "binding result", "result": "binds"}]}
